Residue numbers refer to the chain shown, from its start. In names and notes the source's numbering stands.
T1: small-ET-1 (endothelin-1) (human)
T1 construct: 21 amino acid peptide, same for mouse and human; also called human small-ET-1; EDN-1
T1 peptide: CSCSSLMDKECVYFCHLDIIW

T2: human big-endothelin-1 (big-ET-1) (human)
T2 peptide: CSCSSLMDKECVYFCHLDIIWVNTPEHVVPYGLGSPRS

T3: mouse big-ET-1 (mouse)
T3 peptide: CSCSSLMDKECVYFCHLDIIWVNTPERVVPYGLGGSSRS

B1: H4H6334P2 (antibody, V domains shown)
VH: EVQLVESGGGLVKPGGSLRLSCAVSGFTFSIDWMIWVRQAPGTGLEWVGRIKRKTDGGTTDYAAPVKGRFTISRDDSKNTLYLQMNSLKTEDTAIYYCATGGFERWGQGTLVTVSS
VL: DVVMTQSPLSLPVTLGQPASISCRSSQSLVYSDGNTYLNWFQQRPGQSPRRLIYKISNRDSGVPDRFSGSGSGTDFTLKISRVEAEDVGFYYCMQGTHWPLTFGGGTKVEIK
notes: Human IgG4 Fc (prefix H4H)
B2: H4H6492N2 (antibody, V domains shown)
VH: EVQLVESGGGLVKPGGSLRVSCVASGFTFSNAWMTWVRQTPGKGLEWVGRIKSRTDGGTVDYVAPVKGRFTISRDDSKNTLYLQMNSLKAEDTAVYYCRADLDYWGQGTLVTVSS
VL: DVVMTQSPLSLPVSLGQPASISCRSSQSLVHSDGITYLNWFQQRPGQSPRRLIYKISNRDSGVPDRFSGSGSGTDFTLKFSRVEAEDVGVYFCMQGTHWPYTFGQGTKLEIK
notes: Human IgG4 Fc (prefix H4H)
B3: H4H6316P (antibody, V domains shown)
VH: QVQLVESGGGVVQPGRSLRLSCEASGFTFSSYGMHWVRQAPGKGLEWVAVFWYDGSNKYYADSVKGRFTISRDNSKNTLYLQMNSLTAEDTAIYYCARAYDAFDIWGQGTMVTVSS
VL: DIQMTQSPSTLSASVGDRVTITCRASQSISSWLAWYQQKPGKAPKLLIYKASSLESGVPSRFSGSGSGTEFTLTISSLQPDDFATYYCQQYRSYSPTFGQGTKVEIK
notes: Human IgG4 Fc (prefix H4H)
B4: H4H6311P (antibody, V domains shown)
VH: B3 VH with E23A, S31T, Y53F, L79I, T87R
VL: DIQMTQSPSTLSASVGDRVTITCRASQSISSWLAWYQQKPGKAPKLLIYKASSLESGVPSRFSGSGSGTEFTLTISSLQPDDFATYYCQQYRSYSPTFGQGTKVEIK
notes: Human IgG4 Fc (prefix H4H)
B5: H4H6317P (antibody, V domains shown)
VH: B3 VH with E23A, F51L, S56R, T87R, I93V, A99S
VL: DIQMTQSPSTLSASVGDRVTITCRASQSISSWLAWFQQGPGRAPKLLIYKASTLQSGVPSRFSGSGSGTEFTLTISSLQPDDFATYYCQQYRSYSPTFGQGTKVEIK
notes: Human IgG4 Fc (prefix H4H)
B6: H4H6338P (antibody, V domains shown)
VH: EVQLVESGGGLVQPGGSLRLSCAASGFAFSSYAMTWVRQTPGKGLEWVSSISGSGGSTYYADSVKGRFTISRDNSKNTLYLQMNSLRAEDTAVYYCAKARTGTHAFDIWGQGTMVTVSS
VL: not shown
notes: Human IgG4 Fc (prefix H4H)
B7: H4H6343P (antibody, V domains shown)
VH: B6 VH with V5L, A28T, T35S, T40A, S50A, G56V, S57G, A97P
VL: not shown
notes: Human IgG4 Fc (prefix H4H)
B8: H4H6347P (antibody, V domains shown)
VH: B6 VH with A28T, S31N, T35S, T40A, S50A, G56V, S57G, D62A, A97P
VL: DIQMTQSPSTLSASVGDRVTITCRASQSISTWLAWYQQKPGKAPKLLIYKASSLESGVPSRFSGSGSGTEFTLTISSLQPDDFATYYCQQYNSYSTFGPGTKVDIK
notes: Human IgG4 Fc (prefix H4H)
B9: H4H6345P (antibody, V domains shown)
VH: B6 VH with A28I, T40A, S50A, G56V, A88I, A97G
VL: DIQMTQSPSTLSASVGDRVTITCRASQSISRWLAWYQQKPGKAPKLLIYKASSLETGVPSRFSGSGSGTEFTLTISSLQPDDFGTYYCQQYNSYSSFGPGTKVDIK
notes: Human IgG4 Fc (prefix H4H)
B10: H4H6340P (antibody, V domains shown)
VH: EVQLVESGGGLVQPGGSLRLSCAASGFTFSSSAMSWVRQAPGKGLEWVSAISGSGVGTYYAASVKGRFTISRDNSKNILYLQMNDLRAEDTALYYCPKARTGTHAFDIWGQGTMVTVSS
VL: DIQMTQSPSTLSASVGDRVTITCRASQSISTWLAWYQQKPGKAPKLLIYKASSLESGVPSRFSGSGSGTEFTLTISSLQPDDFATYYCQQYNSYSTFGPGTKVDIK
notes: Human IgG4 Fc (prefix H4H)
B11: H4H6330P (antibody, V domains shown)
VH: EVQLVESGGGLVQPGGSLRLSCAASGFTFSNYAMSWVRQAPGKGLEWVSAVSGSGVGTYYADSVKGRFTISRDNSKNTLYLQMKSLSAEDTALYYCTKTLGGTHAFDIWGQGTMVTVSS
VL: B9 VL with T56S, L73V, S76N, G84A, P99Q, V103L, D104E
notes: Human IgG4 Fc (prefix H4H)
B12: H4H6332P (antibody, V domains shown)
VH: B11 VH with G9E, T28I, N31S, V51I, K84N, S87R, L93V, Y95F, T97A, G101S
VL: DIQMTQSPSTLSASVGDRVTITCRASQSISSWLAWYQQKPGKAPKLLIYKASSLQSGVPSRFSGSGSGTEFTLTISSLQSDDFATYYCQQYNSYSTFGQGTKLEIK
notes: Human IgG4 Fc (prefix H4H)
B13: H4H6329P (antibody, V domains shown)
VH: QVQLVESGGGVVQPGRSLRLSCAASGFTFGSYGMHWVRQAPGKGLEWVAVIWYDGSDEYYTDSVKGRFTVSRDNSKYTLYLQMNSLRADDTAVYYCARDGYRTRGNYFDYWGQGTLVTVSS
VL: DVVMTQSPLSLPVALGQPASISCRSSQSLVYSDGNTYLNWFQQRPGQSPRRLIYKVSNRDSGVPDRFGGSGSGTDFTLKISRVEAEDVGLYYCMQGTHWPPTFGGGTKVEIK
notes: Human IgG4 Fc (prefix H4H)
B14: H2M6490N (antibody, V domains shown)
VH: EVQLLESGGGLVQPGGSLRLSCAASGFTFSSYAMTWVRQAPGKGLECISAISGSGYSTYYADSMKGRFSISRDNSKNTLYLQMNRLRAEDTAVYYCTKGGRILEWLLPFDFWGQGTLVTVSS
VL: B13 VL with A14T, N39I, G68S, K79I
notes: Hybridoma antibody, human variable domains, mouse IgG2 Fc (prefix H2M)
B15: H4H6353P (antibody, V domains shown)
VH: EVQLVESGGGLVKPGGSLRLSCAASGFSFNYAWMSWVRQAPGKGLEWIGRIKSKINGGTTDYTAPVKGRFTISRDDSKNTLYLQMNSLKTEDTAVYYCRGDEDFWGQGTLVTVSS
VL: B13 VL with A14T, N35F, Q42R, G68S, K79R, L90I, P101Y, G105Q, V109L
notes: Human IgG4 Fc (prefix H4H)
B16: H4H6323P (antibody, V domains shown)
VH: QITLKESGPPLVKPTQTLTLTCTFSGFSLNTNGMGVGWIRQPPGKALEWLTLIYWNDDKRYSPSLKTRLTITKDTSKNQVVLTMTNMDPVDTATYYCARFGSGTYWGQGTLVTVSS
VL: DIVMTQSPLSLPVTPGEPASISCRSSQSLLHSYGYNFLDWFLQKPGQSPQLLIYLGSHRASGVPDRFSGSGSGTDFTLKISRVEAEDVGVYYCMQALQTPLTFGGGTKVEIK
notes: Human IgG4 Fc (prefix H4H)

Target: T1, small-ET-1 (endothelin-1)
Test: SPR (Biacore T200), 37 C, mAb capture, peptide analyte
Description: (§1) Measurements were conducted on a T200 Biacore instrument (Biacore Life Sciences division of GE Healthcare, Piscataway, N.J.). […] Peptide binding was monitored for 3 min while dissociation of mAb-bound peptide was monitored for 4 min in HBST running buffer (0.01 M HEPES pH 7.4, 0.15 M NaCl, 3 mM EDTA, 0.005% v/v Surfactant P20). Kinetic association (kₐ) and dissociation (kd) rate constants were determined by processing and fitting the data to a 1:1 binding model using Scrubber 2.0 curve fitting software.

Binder	binding result
B1	no binding
B2	no binding
B3	no binding
B4	no binding
B5	no binding
B6	no binding
B7	no binding
B8	no binding
B9	no binding
B10	no binding
B11	no binding
B12	no binding
B13	no binding
B14	no binding
B15	no binding
B16	no binding

Target: T2, human big-endothelin-1 (big-ET-1)
Test: cell-based or functional assay

Binder	Blocking IC50(M), 10 nM hBig-ET-1 + 3 nM hECE1; 293/ETaR/NFAT-Luc luciferase
B2	4.17e-08 M
B8	1.5e-09 M
B10	2.1e-09 M
B11	1.7e-09 M
B12	3.1e-09 M
B13	3.3e-09 M
B15	1.8e-09 M
B16	7.6e-09 M

Target: T3, mouse big-ET-1
Test: cell-based or functional assay

Binder	Blocking IC50(M), 20 nM mBig-ET-1 + 5 nM mECE1; 293/ETaR/NFAT-Luc luciferase
B3	> 1e-07 M
B5	> 1e-07 M
B8	1e-09 M
B10	1.5e-09 M
B11	1.6e-09 M
B12	1.2e-09 M
B13	> 1e-07 M
B15	> 1e-07 M
B16	4e-09 M

Target: T2, human big-endothelin-1 (big-ET-1)
Test: SPR (Biacore T200), 37 C, mAb capture, peptide analyte
Description: as §1

Binder	Kd	T½	koff	kon
B1	225 nM	18 s	0.0349 s⁻¹	155000 M⁻¹ s⁻¹
B2	70 nM	24 s	0.0297 s⁻¹	424000 M⁻¹ s⁻¹
B3	14.8 nM	1620 s	0.000428 s⁻¹	28800 M⁻¹ s⁻¹
B4	15.2 nM	2400 s	0.000292 s⁻¹	19200 M⁻¹ s⁻¹
B5	5.42 nM	3480 s	0.000199 s⁻¹	36700 M⁻¹ s⁻¹
B6	–	6 s	0.12 s⁻¹	454000 M⁻¹ s⁻¹
B7	–	36 s	0.018 s⁻¹	1.61e+06 M⁻¹ s⁻¹
B8	13.2 nM	30 s	0.0239 s⁻¹	1.81e+06 M⁻¹ s⁻¹
B9	87.4 nM	12 s	0.058 s⁻¹	663000 M⁻¹ s⁻¹
B10	11 nM	30 s	0.0249 s⁻¹	2.3e+06 M⁻¹ s⁻¹
B11	22.9 nM	24 s	0.0324 s⁻¹	1.42e+06 M⁻¹ s⁻¹
B12	29.5 nM	18 s	0.0429 s⁻¹	1.45e+06 M⁻¹ s⁻¹
B13	0.297 nM	3900 s	0.000176 s⁻¹	595000 M⁻¹ s⁻¹
B14	19.1 nM	180 s	0.00399 s⁻¹	209000 M⁻¹ s⁻¹
B15	1.02 nM	600 s	0.00116 s⁻¹	1.14e+06 M⁻¹ s⁻¹
B16	10.1 nM	120 s	0.00569 s⁻¹	565000 M⁻¹ s⁻¹

Target: T3, mouse big-ET-1
Test: as above
Description: as §1

Binder	T½	koff	kon	Kd
B6	0.6 s	0.885 s⁻¹	190000 M⁻¹ s⁻¹	–
B7	18 s	0.0453 s⁻¹	1.8e+06 M⁻¹ s⁻¹	–
B8	18 s	0.0414 s⁻¹	3.1e+06 M⁻¹ s⁻¹	13 nM
B9	6 s	0.0974 s⁻¹	1.5e+06 M⁻¹ s⁻¹	65 nM
B10	12 s	0.0603 s⁻¹	1.3e+06 M⁻¹ s⁻¹	47 nM
B11	12 s	0.072 s⁻¹	1.5e+06 M⁻¹ s⁻¹	50 nM
B12	6 s	0.196 s⁻¹	2e+06 M⁻¹ s⁻¹	100 nM
B13	3120 s	0.000223 s⁻¹	11600 M⁻¹ s⁻¹	19 nM
B15	300 s	0.00236 s⁻¹	2900 M⁻¹ s⁻¹	800 nM
B16	36 s	0.0192 s⁻¹	580000 M⁻¹ s⁻¹	32.9 nM

Target: T2, human big-endothelin-1 (big-ET-1)
Test: cell-based or functional assay
Remark: another data set of the same source

Binder	Blocking IC50(M), 10 nM hBig-ET-1 + 3 nM hECE1 [Trial 1]; 293/ETaR/NFAT-Luc luciferase
B14	1.9e-09 M

Source: patent US20130216547A1 (Regeneron, published 2013)
